Experimental data as given in patent US20140087995A1 (published 2014).
Numbered stars: 1 amine (or outer) side, 2 acyl side, 3 side chain; on linkers, the order of the positions; unused ones are H or OH. Bridge positions count the residues as written; N and C are the ends. Side chains are listed from the residue outwards. Ends that are not written are not given here. * marks the point of attachment. C20 diacid = O=C(O)CCCCCCCCCCCCCCCCCCC(=O)*; γGlu = O=C(O)[C@H](CCC(=O)[*:2])N[*:1]

T1: human calcitonin receptor (human, UniProt P30988 25-474)
T1 sequence (looked up): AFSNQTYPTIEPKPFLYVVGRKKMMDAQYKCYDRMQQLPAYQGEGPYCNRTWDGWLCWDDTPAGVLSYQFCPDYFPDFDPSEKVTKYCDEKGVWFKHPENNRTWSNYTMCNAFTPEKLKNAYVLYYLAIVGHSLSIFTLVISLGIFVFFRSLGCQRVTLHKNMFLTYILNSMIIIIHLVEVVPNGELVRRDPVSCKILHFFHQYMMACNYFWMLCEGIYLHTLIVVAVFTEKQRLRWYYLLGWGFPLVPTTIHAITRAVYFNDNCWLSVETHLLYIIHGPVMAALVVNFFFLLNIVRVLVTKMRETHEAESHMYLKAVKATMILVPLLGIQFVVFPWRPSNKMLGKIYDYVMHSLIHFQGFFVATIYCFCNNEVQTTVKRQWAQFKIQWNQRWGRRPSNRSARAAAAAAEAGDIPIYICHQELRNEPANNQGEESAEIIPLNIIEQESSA

T2: human amylin receptor (amylin 3(a) receptor: human calcitonin receptor plus RAMP-3) (human, UniProt P30988 25-474; O60896 24-148)
T2 sequence (looked up) 1: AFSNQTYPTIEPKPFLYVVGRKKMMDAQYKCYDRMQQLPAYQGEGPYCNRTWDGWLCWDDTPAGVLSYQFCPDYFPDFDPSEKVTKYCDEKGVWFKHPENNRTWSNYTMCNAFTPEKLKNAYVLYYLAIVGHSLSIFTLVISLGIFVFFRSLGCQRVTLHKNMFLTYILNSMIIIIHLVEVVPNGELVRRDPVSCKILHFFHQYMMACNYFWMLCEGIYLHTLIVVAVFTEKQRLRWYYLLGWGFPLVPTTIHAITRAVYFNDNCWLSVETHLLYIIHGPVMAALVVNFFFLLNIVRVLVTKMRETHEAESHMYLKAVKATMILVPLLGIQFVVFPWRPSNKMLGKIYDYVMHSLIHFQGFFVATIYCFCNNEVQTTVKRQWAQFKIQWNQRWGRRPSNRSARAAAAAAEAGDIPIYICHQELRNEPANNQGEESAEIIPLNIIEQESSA
T2 sequence (looked up) 2: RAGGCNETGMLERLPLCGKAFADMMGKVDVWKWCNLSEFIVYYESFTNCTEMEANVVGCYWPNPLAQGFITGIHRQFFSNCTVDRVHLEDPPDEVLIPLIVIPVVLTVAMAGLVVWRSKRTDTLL


Experiments:
[1] = target: T1, human calcitonin receptor; assay: cell-based or functional assay
[2] = target: T2, human amylin receptor (amylin 3(a) …); assay: cell-based or functional assay
[3] = target: T2, human amylin receptor (amylin 3(a) …); assay: SPA competition binding, displacement of 125I-rat amylin, membranes of BHK amylin 3(a)/CRE-luc cells
How it was run: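 One-site competition analysis of SPA counts yielded IC₅₀ as a measure of affinity. Membranes were at 35 ng/μL final; incubation was 120 min at 25° C, pH 7.4.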

Row | hCTR funct. EC50 (pM) [1] [pM] | hAmylin-R funct. EC50 (pM) [2] [pM] | IC50 [3] [nM] | Ratio hCT/hAmylin funct. [2] | Binder
1 | 2360 | 225 | 0.121 | – | K([γGlu-γGlu-C20 diacid])CNTATCATQRLAEFLRHSSPNFGAIPSSTNVGPETY-NH2 (disulfide 2-7; N-terminus assumed; SMILES CC[C@H](C)[C@H](NC(=O)[C@H](C)NC(=O)CNC(=O)[C@H](Cc1ccccc1)NC(=O)[C@H](CC(N)=O)NC(=O)[C@@H]1CCCN1C(=O)[C@H](CO)NC(=O)[C@H](CO)NC(=O)[C@H](Cc1c[nH]cn1)NC(=O)[C@H](CCCNC(=N)N)NC(=O)[C@H](CC(C)C)NC(=O)[C@H](Cc1ccccc1)NC(=O)[C@H](CCC(=O)O)NC(=O)[C@H](C)NC(=O)[C@H](CC(C)C)NC(=O)[C@H](CCCNC(=N)N)NC(=O)[C@H](CCC(N)=O)NC(=O)[C@@H](NC(=O)[C@H](C)NC(=O)[C@@H]1CSSC[C@H](NC(=O)[C@@H](N)CCCCNC(=O)CC[C@H](NC(=O)CC[C@H](NC(=O)CCCCCCCCCCCCCCCCCCC(=O)O)C(=O)O)C(=O)O)C(=O)N[C@@H](CC(N)=O)C(=O)N[C@@H]([C@@H](C)O)C(=O)N[C@@H](C)C(=O)N[C@@H]([C@@H](C)O)C(=O)N1)[C@@H](C)O)C(=O)N1CCC[C@H]1C(=O)N[C@@H](CO)C(=O)N[C@@H](CO)C(=O)N[C@H](C(=O)N[C@@H](CC(N)=O)C(=O)N[C@H](C(=O)NCC(=O)N1CCC[C@H]1C(=O)N[C@@H](CCC(=O)O)C(=O)N[C@H](C(=O)N[C@@H](Cc1ccc(O)cc1)C(N)=O)[C@@H](C)O)C(C)C)[C@@H](C)O)
2 | 1280 | 222 | 0.069 | 5.8 | K([γGlu-γGlu-C20 diacid])CNTATCATQRLAEFLRHSSPNFGAILSSTPVGPETY-NH2 (disulfide 2-7 (inferred))
3 | 89600 | 5170 | 1.19 | – | K([γGlu-γGlu-C20 diacid])CNTATCATQRLAEFLRHSSNNPGAILSSTNVGPETY-NH2 (disulfide 2-7; N-terminus assumed; SMILES CC[C@H](C)[C@H](NC(=O)[C@H](C)NC(=O)CNC(=O)[C@@H]1CCCN1C(=O)[C@H](CC(N)=O)NC(=O)[C@H](CC(N)=O)NC(=O)[C@H](CO)NC(=O)[C@H](CO)NC(=O)[C@H](Cc1c[nH]cn1)NC(=O)[C@H](CCCNC(=N)N)NC(=O)[C@H](CC(C)C)NC(=O)[C@H](Cc1ccccc1)NC(=O)[C@H](CCC(=O)O)NC(=O)[C@H](C)NC(=O)[C@H](CC(C)C)NC(=O)[C@H](CCCNC(=N)N)NC(=O)[C@H](CCC(N)=O)NC(=O)[C@@H](NC(=O)[C@H](C)NC(=O)[C@@H]1CSSC[C@H](NC(=O)[C@@H](N)CCCCNC(=O)CC[C@H](NC(=O)CC[C@H](NC(=O)CCCCCCCCCCCCCCCCCCC(=O)O)C(=O)O)C(=O)O)C(=O)N[C@@H](CC(N)=O)C(=O)N[C@@H]([C@@H](C)O)C(=O)N[C@@H](C)C(=O)N[C@@H]([C@@H](C)O)C(=O)N1)[C@@H](C)O)C(=O)N[C@@H](CC(C)C)C(=O)N[C@@H](CO)C(=O)N[C@@H](CO)C(=O)N[C@H](C(=O)N[C@@H](CC(N)=O)C(=O)N[C@H](C(=O)NCC(=O)N1CCC[C@H]1C(=O)N[C@@H](CCC(=O)O)C(=O)N[C@H](C(=O)N[C@@H](Cc1ccc(O)cc1)C(N)=O)[C@@H](C)O)C(C)C)[C@@H](C)O)
4 | 2830 | 172 | 0.377 | – | K([γGlu-γGlu-C20 diacid])CNTATCATQRLAEFLRHSSPNFGAIPSSTNVGPHTY-NH2 (disulfide 2-7 (inferred))
